{
  "source": "patent US6667173B2",
  "about": "“Nucleic acids encoding platelet derived growth factor-alpha receptors” (The Schepens Eye Research Institute, priority 2000, dated 2003)",
  "key": {"[1]": {"system": "F cells", "assay": "Collagen gel contraction assay of F cells expressing αPDGFR mutants", "assay_type": "cell-based, mouse", "settings": "PDGF-BB (50 ng/ml), 48 hours", "protocol": "The contraction assay was based on a previously described reference, Skuta, G. et al. (1999) J. Biol. Chem. 274:30163, with the following modifications. Fα cells were suspended in 1.5 mg/ml of neutralized collagen I (Cohesion vitrogen 100, Palo Alto, Calif.) at a density of 10^6 cells/ml, and were transferred into the 24-well plate (Falcon, Franklyn Lakes, N.J.) that had been preincubated with phosphate-buffer saline (PBS) with 5 mg/ml of bovine serum albumin (BSA) overnight. The gel was solidified by incubating at 37° C. for 90 minutes, and then the well was flooded with DMEM+5 mg/ml of BSA supplemented with an amount of vitreous such that the final concentration of vitreous in the culture medium was 1, 5 or 20%. The gels were incubated at 37° C. with 5% CO2. The initial gel diameter was 15 mm. The media was replaced every 24 hours and the gel diameter was measured after 48 hours. The extent of contraction was calculated by subtracting the diameter of the well at 48 hours from the initial diameter (15 mm). Each experimental condition was assayed in triplicate, and at least three independent experiments were performed. Unpaired t-test was performed to detect statistic difference in contraction assay.\nTo determine the signaling pathways that drive contraction, cells expressing the αPDGFR mutants were subjected to the collagen gel contraction assay described above. Accordingly, F cells expressing the indicated αPDGFRs were subjected to the collagen gel assay in the presence of buffer, PDGF-BB (50 ng/ml), TGFβ1 (1 ng/ml), or FBS (10%). The data presented are the mean±standard deviation measured at the 48 hours time point. Each experimental condition was assayed in triplicate, and at least 3 independent experiments were performed."}, "[2]": {"system": "PI3K (p85)", "assay": "Co-immunoprecipitation of the regulatory subunit of PI3K (p85) with αPDGFR mutants in F cells", "assay_type": "cell-based, mouse", "settings": "50 ng/ml PDGF-BB, 5 minutes", "protocol": "(§1) The ability of the αPDGFR mutants to undergo ligand dependent tyrosine phosphorylation and to associate with signaling enzymes was then tested. F cells expressing various αPDGFR mutants were grown to subconfluence and serum starved overnight. Cells were either left resting (−) or stimulated with 50 ng/ml PDGF-BB (+) for 5 minutes, and lysed. The αPDGFR was immunoprecipitated with αPDGFR antibody, as described above, and the resulting immunoprecipitates were resolved by 7.5% SDS-PAGE and transferred onto Immobilon. The segment of the blot containing the αPDGFR was first blotted with anti-phosphotyrosine antibodies, then stripped and reprobed with an anti-αPDGFR antibody. Portions of the membrane that contained the proteins of the appropriate molecular mass were immunoblotted for PLCγ, the regulatory subunit of PI3K (p85), or SHP-2. Crude rabbit anti-p85 antibody is from Dr. A. Toker (Beth Israel Hospital/Harvard Medical School, Boston, Mass.). The monoclonal antibodies against PLCγ and SHP-2 were purchased from Upstate Biotechnology Inc."}, "[3]": {"system": "PI3K", "assay": "In vitro PI3K activity assay of αPDGFR immunoprecipitates", "assay_type": "biochemical, mouse", "settings": "immunoprecipitates of F cells ± 50 ng/ml PDGF-BB", "protocol": "To measure the PI3K activity that coprecipitated with the PDGFRs, the receptor immunoprecipitates were subjected to an in vitro PI3K kinase assay. Aliquots of the immunoprecipitates used in FIG. 10B were subjected to a PI3K activity assay. This assay detects PI3K that has co-precipitated with the αPDGFR. The PI3K assay was performed as previously described. Kazlauskas, A. et al. (1990) Embo. J. 9:3279. Briefly, immunoprecipitated αPDGFR from approximately 5×10^5 cells were incubated with phosphatidyl inositol in the presence of [^32P]-γATP. The reactions were terminated and the phospholipids were extracted and purified by chromatography. The radioactive product of the reaction (phosphoinositide 3 phosphate) was detected by autoradiography."}, "[4]": {"system": "αPDGFR", "settings": "cited from earlier work"}, "[5]": {"system": "rabbit eyes", "assay": "Rabbit PVR model: F cells expressing αPDGFR mutants injected into the vitreous", "assay_type": "in vivo", "settings": "for potential to induce PVR (PVR score): up to 28 days after the surgery", "protocol": "PVR was induced in the rabbit eyes as previously described (Andrews, A. et al. (1999) Invest. Ophthalmol. Vis. Sci. 40:2683 and Nakagawa, M. et al. (1995) Invest. Ophthalmol. Vis. Sci. 36:2388). Briefly, gas vitrectomy was performed by injecting 0.4 ml of expanding perfluoropropane gas (C3F8) into the vitreous cavity 4 mm posterior to the corneal limbus under anesthetical condition. Three days later, the rabbits were anesthetized and the pupils were dilated. 0.1 ml DMEM containing 1×10^5 of RCFs expressing empty vector or αPDGFR mutant were injected into the vitreous cavity together with 0.1 ml of PRP using 30 G needle. Ten rabbits underwent surgery for each cell population expressing the empty vector or the truncated, E587K, T665M, D818N, or V859M αPDGFR mutants. One rabbit in the D818N group died just after the surgery, therefore the total number is 9 for this group. The retinal status was evaluated with an indirect ophthalmoscope fitted with a +30 D fundus lens at 1, 4, 7, 14, 21, and 28 days after the surgery. The PVR was graded from 0 through 5 according to the Fastenberg score. Fastenberg, D. M. et al. (1982) Am. J. Ophthalmol. 93:565. The grading is as follows: 0; no abnormality, 1; vitreous strand, 2; traction of the retina, 3; partial retinal detachment (less than 2 quadrant), 4; extended (more than 2 quadrant) but not total retinal detachment, 5; total retinal detachment. All surgeries were performed under aseptic conditions and pursuant to the regulation of the ARVO Statement for the Use of Animals in Ophthalmic and Vision Research. Only the left eye of each rabbit was used for the experiments.\nAn important component of PVR is the traction force that is generated when cells of the epiretinal membrane contract. To test if the signaling enzymes that are required for contraction in the in vitro assays also participate in PVR, the cells expressing the various αPDGFR mutants, described in the previous Examples, were assayed in a rabbit PVR model, described above. In this model, rabbits first undergo gas vitrectomy, and then cells are coinjected with […]. The formation of an epiretinal membrane and retinal detachment is observed in living animals over 28 days.\nBriefly, PVR was induced by introducing F cells expressing the indicated αPDGFR into the vitreous of the rabbit eyes. The PVR score was evaluated up to 28 days after the surgery according to the classification described above. The mean value and standard error of the scores in a group were indicated. Each group contained 9 or 10 rabbits; the response to parental F cells was previously reported (Andrews et al., supra), and was included here for comparison purposes."}, "[6]": {"system": "αPDGFR", "assay": "Ligand-dependent tyrosine phosphorylation of αPDGFR mutants in F cells", "assay_type": "cell-based, human", "settings": "50 ng/ml PDGF-BB, 5 minutes", "protocol": "as §1"}, "[7]": {"system": "SHP-2", "assay": "Co-immunoprecipitation of SHP-2 with αPDGFR mutants in F cells", "assay_type": "cell-based, mouse", "settings": "50 ng/ml PDGF-BB, 5 minutes", "protocol": "as §1"}, "[8]": {"system": "PLCγ", "assay": "Co-immunoprecipitation of PLCγ with αPDGFR mutants in F cells", "assay_type": "cell-based, mouse", "settings": "50 ng/ml PDGF-BB, 5 minutes", "protocol": "as §1"}, "[9]": {"system": "GST-PLCγ", "assay": "In vitro kinase assay of immunoprecipitated mutant αPDGFRs with exogenous substrate", "assay_type": "biochemical", "settings": "292 immunoprecipitates, [32P]-γ ATP, 30° C., 5 min", "protocol": "Mutant αPDGFRs were selectively immunoprecipitated with the 292 antibody, and samples representing 2×10^5 cells from 292 antibodies were subjected to an in vitro kinase assay. Immunoprecipitates were preincubated with 2 μg of GST protein for 10 min at 0° C., then 2 μg of Glutathione S-transferase fusion phospholipase C-gamma (GST-PLCγ, an exogenous substrate, 10 μCi of γ-[^32P] ATP (DuPont NEN Research Products, Boston, Mass.), and universal kinase buffer (UKB; 20 mM Pipes, pH 7.0, 10 mM MnCl2, 20 μg/ml aprotinin) were added. The samples were incubated at 30° C. for 5 min. The proteins were separated by 7.5% sodium dodecyl sulfate-polyacrylamide gel electrophoresis (SDS-PAGE), the gel was dried, and the radiolabeled protein was detected by autoradiography."}, "[10]": {"system": "Src family kinases", "settings": "cited from earlier work"}},
  "note": "Entries after “also recorded” stand apart in the source; their conditions may differ.",
  "data": [
    {"molecule": "F31/42: αPDGFR mutant, Tyr to Phe substitution at 731 and 742", "values": [
      {"measurement": "PDGF-dependent contraction", "setting": "[1]", "result": "did not respond"},
      {"measurement": "recruitment of PI3K / p85 (Properties)", "setting": "[2]", "result": "failed to efficiently associate; also recorded: Fails to recruit PI3K"},
      {"measurement": "PI3K activity coprecipitating with the receptor", "setting": "[3]", "result": "did not detectably coprecipitate"}
    ]},
    {"molecule": "R627: αPDGFR mutant, Lys to Arg substitution at 627, kinase inactive", "values": [
      {"measurement": "kinase activity of the receptor (Properties)", "setting": "[4]", "result": "Kinase inactive"},
      {"measurement": "PDGF-dependent contraction", "setting": "[1]", "result": "no contraction"},
      {"measurement": "recruitment of PI3K / p85 (Properties)", "setting": "[2]", "result": "failed to recruit any of these signaling enzymes"},
      {"measurement": "potential to induce PVR (PVR score)", "setting": "[5]", "result": "dramatically less able to cause the disease"},
      {"measurement": "PDGF-dependent tyrosine phosphorylation of the receptor", "setting": "[6]", "result": "not phosphorylated in response to PDGF"},
      {"measurement": "recruitment of SHP-2 (Properties)", "setting": "[7]", "result": "failed to recruit any of these signaling enzymes"},
      {"measurement": "recruitment or activation of PLCγ (Properties)", "setting": "[8]", "result": "failed to recruit any of these signaling enzymes"}
    ]},
    {"molecule": "WT αPDGFR: wild type human αPDGFR, SEQ ID NO: 2, expressed in F cells (Fα cells)", "values": [
      {"measurement": "kinase activity towards exogenous substrate GST-PLCγ", "setting": "[9]", "result": "phosphorylated the exogenous substrate"},
      {"measurement": "PDGF-dependent contraction", "setting": "[1]", "result": "contracted"},
      {"measurement": "recruitment of PI3K / p85 (Properties)", "setting": "[2]", "result": "coprecipitated"},
      {"measurement": "time until PVR after injection of cells", "setting": "[5]; rabbit, in vivo", "result": "2-3 weeks"},
      {"measurement": "PI3K activity coprecipitating with the receptor", "setting": "[3]", "result": "coprecipitated"},
      {"measurement": "recruitment of SHP-2 (Properties)", "setting": "[7]", "result": "coprecipitated"},
      {"measurement": "recruitment or activation of PLCγ (Properties)", "setting": "[8]", "result": "coprecipitated"}
    ]},
    {"molecule": "F7: αPDGFR mutant, Tyr to Phe substitution at 572, 574, 720, 731, 742, 988, and 1018 (protein, UniProt P16234 24-1089, looked up, variant Y572F Y574F Y720F Y731F Y742F Y988F Y1018F) Platelet-derived growth …: QLSLPSILPNENEKVVQLNSSFSLRCFGESEVSWQYPMSEEESSDVEIRNEENNSGLFVTVLEVSSASAAHTGLYTCYYNHTQTEENELEGRHIYIYVPDPDVAFVPLGMTDYLVIVEDDDSAIIPCRTTDPETPVTLHNSEGVVPASYDSRQGFNGTFTVGPYICEATVKGKKFQTIPFNVYALKATSELDLEMEALKTVYKSGETIVVTCAVFNNEVVDLQWTYPGEVKGKGITMLEEIKVPSIKLVYTLTVPEATVKDSGDYECAARQATREVKEMKKVTISVHEKGFIEIKPTFSQLEAVNLHEVKHFVVEVRAYPPPRISWLKNNLTLIENLTEITTDVEKIQEIRYRSKLKLIRAKEEDSGHYTIVAQNEDAVKSYTFELLTQVPSSILDLVDDHHGSTGGQTVRCTAEGTPLPDIEWMICKDIKKCNNETSWTILANNVSNIITEIHSRDRSTVEGRVTFAKVEETIAVRCLAKNLLGAENRELKLVAPTLRSELTVAAAVLVLLVIVIISLIVLVVIWKQKPRYEIRWRVIESISPDGHEFIFVDPMQLPYDSRWEFPRDGLVLGRVLGSGAFGKVVEGTAYGLSRSQPVMKVAVKMLKPTARSSEKQALMSELKIMTHLGPHLNIVNLLGACTKSGPIYIITEYCFYGDLVNYLHKNRDSFLSHHPEKPKKELDIFGLNPADESTRSFVILSFENNGDFMDMKQADTTQFVPMLERKEVSKYSDIQRSLYDRPASYKKKSMLDSEVKNLLSDDNSEGLTLLDLLSFTYQVARGMEFLASKNCVHRDLAARNVLLAQGKIVKICDFGLARDIMHDSNYVSKGSTFLPVKWMAPESIFDNLYTTLSDVWSYGILLWEIFSLGGTPYPGMMVDSTFYNKIKSGYRMAKPDHATSEVYEIMVKCWNSEPEKRPSFYHLSEIVENLLPGQYKKSYEKIHLDFLKSDHPAVARMRVDSDNAFIGVTYKNEEDKLKDWEGGLDEQRLSADSGFIIPLPDIDPVPEEEDLGKRNRHSSQTSEESAIETGSSSSTFIKREDETIEDIDMMDDIGIDSSDLVEDSFL", "values": [
      {"measurement": "kinase activity of the receptor (Properties)", "setting": "[4]", "result": "kinase active"},
      {"measurement": "PDGF-dependent contraction", "setting": "[1]", "result": "no contraction"},
      {"measurement": "recruitment of PI3K / p85 (Properties)", "setting": "[2]", "result": "failed to recruit any of these signaling enzymes; also recorded: Fails to recruit"},
      {"measurement": "potential to induce PVR (PVR score)", "setting": "[5]", "result": "dramatically less able to cause the disease"},
      {"measurement": "PDGF-dependent tyrosine phosphorylation of the receptor", "setting": "[6]", "result": "undergoes modest tyrosine phosphorylation"},
      {"measurement": "recruitment or activation of Src family kinases (Properties)", "setting": "[10]", "result": "Fails to recruit"},
      {"measurement": "recruitment of SHP-2 (Properties)", "setting": "[7]", "result": "failed to recruit any of these signaling enzymes; also recorded: Fails to recruit"},
      {"measurement": "recruitment or activation of PLCγ (Properties)", "setting": "[8]", "result": "failed to recruit any of these signaling enzymes; also recorded: Fails to recruit"}
    ]}
  ]
}
